# Experimental data published in patent US20100273704A1.
# Molecular target: BCL-XL ΔC [GST: P08515]
# Assay: fluorescence polarization
row,EC50 [nM],Substance
1,40.2,BAD SAHBA
2,333,"BAD SAHBA(L,D→A)"
3,> 10000,BAD SAHBA(S→D)
4,35.3,BID SAHBA
